Variants at the floor of the assay were thinned out.
What was measured:
biotinyl-Ile-oxazolone = experiment: self-aminoacylation, catalytic enhancement (BIO) (fold over background); higher = more active; k-Seq, kA / k0A0; sequences stand for … in GGGAAUGGAUCCACAUCUACGAAUUC…UUCACUGCAGACUUGACGAAGCUG
In short: (§1)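 Each biotinyl-aminoacyl-oxazolone, at 2–1250 μM, was incubated with mutagenized RNA pools (0.43 μM) carrying a 21-nt variable region. The 50 μL reactions contained HEPES/NaCl/KCl/MgCl2/CaCl2 buffer with 5% acetonitrile at pH 6.9–7.0 and ran for 90 minutes at room temperature. After streptavidin capture, RNA was measured by qPCR in triplicate and by Illumina sequencing, and catalytic enhancement was calculated as median kA over the uncatalyzed rate from a pseudo-first-order fit of per-sequence fraction reacted.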

biotinyl-Val-oxazolone = experiment: self-aminoacylation, catalytic enhancement (BVO) (fold over background); higher = more active; k-Seq, kA / k0A0; sequences stand for … in GGGAAUGGAUCCACAUCUACGAAUUC…UUCACUGCAGACUUGACGAAGCUG
In short: as §1

biotinyl-Met-oxazolone = experiment: self-aminoacylation, catalytic enhancement (BMO) (fold over background); higher = more active; k-Seq, kA / k0A0; sequences stand for … in GGGAAUGGAUCCACAUCUACGAAUUC…UUCACUGCAGACUUGACGAAGCUG
In short: as §1

biotinyl-Phe-oxazolone = experiment: self-aminoacylation, catalytic enhancement (BFO) (fold over background); higher = more active; k-Seq, kA / k0A0; sequences stand for … in GGGAAUGGAUCCACAUCUACGAAUUC…UUCACUGCAGACUUGACGAAGCUG
In short: as §1

biotinyl-Leu-oxazolone = experiment: self-aminoacylation, catalytic enhancement (BLO) (fold over background); higher = more active; k-Seq, kA / k0A0; sequences stand for … in GGGAAUGGAUCCACAUCUACGAAUUC…UUCACUGCAGACUUGACGAAGCUG
In short: as §1

biotinyl-Trp-oxazolone = experiment: self-aminoacylation, catalytic enhancement (BWO) (fold over background); higher = more active; k-Seq, kA / k0A0; sequences stand for … in GGGAAUGGAUCCACAUCUACGAAUUC…UUCACUGCAGACUUGACGAAGCUG
In short: as §1

## AUUCACCUCGGUCAUCGGAUG [Fam2.2 aminoacylation ribozyme variant]
biotinyl-Ile-oxazolone
  self-aminoacylation: 0.927
biotinyl-Val-oxazolone
  self-aminoacylation: 1
biotinyl-Met-oxazolone
  self-aminoacylation: 0.789
biotinyl-Phe-oxazolone
  self-aminoacylation: 0.352
biotinyl-Leu-oxazolone
  self-aminoacylation: 0.794
biotinyl-Trp-oxazolone
  self-aminoacylation: 0.751

## GUUCACCUAUGUCAUCGGGUG [Fam2.2 aminoacylation ribozyme variant]
biotinyl-Ile-oxazolone
  self-aminoacylation: 3.1
biotinyl-Val-oxazolone
  self-aminoacylation: 3.31
biotinyl-Met-oxazolone
  self-aminoacylation: 4.03
biotinyl-Phe-oxazolone
  self-aminoacylation: 21.4
biotinyl-Leu-oxazolone
  self-aminoacylation: 5.63
biotinyl-Trp-oxazolone
  self-aminoacylation: 4.3

## CUAGUCCAAACAAUCGGUCUG [Fam1A.1 aminoacylation ribozyme variant]
biotinyl-Ile-oxazolone
  self-aminoacylation: 0.963
biotinyl-Val-oxazolone
  self-aminoacylation: 0.767
biotinyl-Met-oxazolone
  self-aminoacylation: 0.736
biotinyl-Phe-oxazolone
  self-aminoacylation: 1.03
biotinyl-Leu-oxazolone
  self-aminoacylation: 0.755
biotinyl-Trp-oxazolone
  self-aminoacylation: 1.01

## AAGUUUGCUAAUAGUCGUGAG [Fam3.1 aminoacylation ribozyme variant]
biotinyl-Ile-oxazolone
  self-aminoacylation: 1.19
biotinyl-Val-oxazolone
  self-aminoacylation: 1.04
biotinyl-Met-oxazolone
  self-aminoacylation: 1.31
biotinyl-Phe-oxazolone
  self-aminoacylation: 2.86
biotinyl-Leu-oxazolone
  self-aminoacylation: 1.13
biotinyl-Trp-oxazolone
  self-aminoacylation: 2.15

## AUUACCCUGGUCAACGAGUCA [Fam2.1 aminoacylation ribozyme variant]
biotinyl-Ile-oxazolone
  self-aminoacylation: 1.14
biotinyl-Val-oxazolone
  self-aminoacylation: 0.969
biotinyl-Met-oxazolone
  self-aminoacylation: 1.05
biotinyl-Phe-oxazolone
  self-aminoacylation: 0.683
biotinyl-Leu-oxazolone
  self-aminoacylation: 0.745
biotinyl-Trp-oxazolone
  self-aminoacylation: 0.482

## AUUAUCCUGAUCAUCGAGUGA [Fam2.1 aminoacylation ribozyme variant]
biotinyl-Ile-oxazolone
  self-aminoacylation: 4.92
biotinyl-Val-oxazolone
  self-aminoacylation: 4.92
biotinyl-Met-oxazolone
  self-aminoacylation: 11.1
biotinyl-Phe-oxazolone
  self-aminoacylation: 60
biotinyl-Leu-oxazolone
  self-aminoacylation: 11.4
biotinyl-Trp-oxazolone
  self-aminoacylation: 11.8

## AUUCACAUAGGUCAUUGGGUG [Fam2.2 aminoacylation ribozyme variant]
biotinyl-Ile-oxazolone
  self-aminoacylation: 2.74
biotinyl-Val-oxazolone
  self-aminoacylation: 3.23
biotinyl-Met-oxazolone
  self-aminoacylation: 4.35
biotinyl-Phe-oxazolone
  self-aminoacylation: 29.1
biotinyl-Leu-oxazolone
  self-aminoacylation: 5.11
biotinyl-Trp-oxazolone
  self-aminoacylation: 4.51

## AUUCACCUAGCUCAUAGGGUG [Fam2.2 aminoacylation ribozyme variant]
biotinyl-Ile-oxazolone
  self-aminoacylation: 1.08
biotinyl-Val-oxazolone
  self-aminoacylation: 1.13
biotinyl-Met-oxazolone
  self-aminoacylation: 1.24
biotinyl-Phe-oxazolone
  self-aminoacylation: 1.04
biotinyl-Leu-oxazolone
  self-aminoacylation: 1.37
biotinyl-Trp-oxazolone
  self-aminoacylation: 0.658

## AUUACCCUGGUCAACGAGGGA [Fam2.1 aminoacylation ribozyme variant]
biotinyl-Ile-oxazolone
  self-aminoacylation: 1.49
biotinyl-Val-oxazolone
  self-aminoacylation: 1.56
biotinyl-Met-oxazolone
  self-aminoacylation: 1.49
biotinyl-Phe-oxazolone
  self-aminoacylation: 1.26
biotinyl-Leu-oxazolone
  self-aminoacylation: 1.85
biotinyl-Trp-oxazolone
  self-aminoacylation: 2.56

## CUACUUGAAACAAUCCGUCUG [Fam1A.1 aminoacylation ribozyme variant]
biotinyl-Ile-oxazolone
  self-aminoacylation: 0.813
biotinyl-Val-oxazolone
  self-aminoacylation: 0.836
biotinyl-Met-oxazolone
  self-aminoacylation: 1.03
biotinyl-Phe-oxazolone
  self-aminoacylation: 0.462
biotinyl-Leu-oxazolone
  self-aminoacylation: 0.759
biotinyl-Trp-oxazolone
  self-aminoacylation: 1.44

## CUACGUCAAACAAUCCGUCUG [Fam1A.1 aminoacylation ribozyme variant]
biotinyl-Ile-oxazolone
  self-aminoacylation: 1.25
biotinyl-Val-oxazolone
  self-aminoacylation: 1.24
biotinyl-Met-oxazolone
  self-aminoacylation: 1.43
biotinyl-Phe-oxazolone
  self-aminoacylation: 2.75
biotinyl-Leu-oxazolone
  self-aminoacylation: 0.974
biotinyl-Trp-oxazolone
  self-aminoacylation: 1.18

## AUUACGUUGGUCAUCGAGUGA [Fam2.1 aminoacylation ribozyme variant]
biotinyl-Ile-oxazolone
  self-aminoacylation: 3.1
biotinyl-Val-oxazolone
  self-aminoacylation: 3.18
biotinyl-Met-oxazolone
  self-aminoacylation: 4.23
biotinyl-Phe-oxazolone
  self-aminoacylation: 11.7
biotinyl-Leu-oxazolone
  self-aminoacylation: 4.86
biotinyl-Trp-oxazolone
  self-aminoacylation: 5.9

## CCACAAUUCAAGCAAUCGGCC [Fam1B.1 aminoacylation ribozyme variant]
biotinyl-Ile-oxazolone
  self-aminoacylation: 4.08
biotinyl-Val-oxazolone
  self-aminoacylation: 4.38
biotinyl-Met-oxazolone
  self-aminoacylation: 4.55
biotinyl-Phe-oxazolone
  self-aminoacylation: 5.63
biotinyl-Leu-oxazolone
  self-aminoacylation: 3.52
biotinyl-Trp-oxazolone
  self-aminoacylation: 3.88

## AUUACGCUGGUCAACGAGUGA [Fam2.1 aminoacylation ribozyme variant]
biotinyl-Ile-oxazolone
  self-aminoacylation: 2.42
biotinyl-Val-oxazolone
  self-aminoacylation: 2.71
biotinyl-Met-oxazolone
  self-aminoacylation: 3.33
biotinyl-Phe-oxazolone
  self-aminoacylation: 5.51
biotinyl-Leu-oxazolone
  self-aminoacylation: 3
biotinyl-Trp-oxazolone
  self-aminoacylation: 3.71

## AUUAUCCUUGUCAUCGAGUGA [Fam2.1 aminoacylation ribozyme variant]
biotinyl-Ile-oxazolone
  self-aminoacylation: 3.49
biotinyl-Val-oxazolone
  self-aminoacylation: 3.57
biotinyl-Met-oxazolone
  self-aminoacylation: 6.66
biotinyl-Phe-oxazolone
  self-aminoacylation: 25.2
biotinyl-Leu-oxazolone
  self-aminoacylation: 6.7
biotinyl-Trp-oxazolone
  self-aminoacylation: 8.67

## AUUCUCCUAGGUCACCGGGUG [Fam2.2 aminoacylation ribozyme variant]
biotinyl-Ile-oxazolone
  self-aminoacylation: 5.47
biotinyl-Val-oxazolone
  self-aminoacylation: 5.85
biotinyl-Met-oxazolone
  self-aminoacylation: 7.25
biotinyl-Phe-oxazolone
  self-aminoacylation: 39.8
biotinyl-Leu-oxazolone
  self-aminoacylation: 10.2
biotinyl-Trp-oxazolone
  self-aminoacylation: 7.7

## AAGUAUGCUAAUAGUCGGAAG [Fam3.1 aminoacylation ribozyme variant]
biotinyl-Ile-oxazolone
  self-aminoacylation: 1.64
biotinyl-Val-oxazolone
  self-aminoacylation: 1.29
biotinyl-Met-oxazolone
  self-aminoacylation: 1.72
biotinyl-Phe-oxazolone
  self-aminoacylation: 11.1
biotinyl-Leu-oxazolone
  self-aminoacylation: 1.42
biotinyl-Trp-oxazolone
  self-aminoacylation: 4.24

## AUUACCAUGGUCUUCGAGUGA [Fam2.1 aminoacylation ribozyme variant]
biotinyl-Ile-oxazolone
  self-aminoacylation: 3.56
biotinyl-Val-oxazolone
  self-aminoacylation: 3.35
biotinyl-Met-oxazolone
  self-aminoacylation: 5.47
biotinyl-Phe-oxazolone
  self-aminoacylation: 28
biotinyl-Leu-oxazolone
  self-aminoacylation: 6.61
biotinyl-Trp-oxazolone
  self-aminoacylation: 7.3

## AUUCACCUAGGCCAUCGGGUG [Fam2.2 aminoacylation ribozyme variant]
biotinyl-Ile-oxazolone
  self-aminoacylation: 3.04
biotinyl-Val-oxazolone
  self-aminoacylation: 3.45
biotinyl-Met-oxazolone
  self-aminoacylation: 4.47
biotinyl-Phe-oxazolone
  self-aminoacylation: 28.6
biotinyl-Leu-oxazolone
  self-aminoacylation: 5.51
biotinyl-Trp-oxazolone
  self-aminoacylation: 4.09

## CUUCUUCAAACAAUCGGUCUU [Fam1A.1 aminoacylation ribozyme variant]
biotinyl-Ile-oxazolone
  self-aminoacylation: 0.878
biotinyl-Val-oxazolone
  self-aminoacylation: 0.925
biotinyl-Met-oxazolone
  self-aminoacylation: 0.814
biotinyl-Phe-oxazolone
  self-aminoacylation: 13.4
biotinyl-Leu-oxazolone
  self-aminoacylation: 0.997
biotinyl-Trp-oxazolone
  self-aminoacylation: 7.08

## AUUAACCUAGGUCAUCGGUUG [Fam2.2 aminoacylation ribozyme variant]
biotinyl-Ile-oxazolone
  self-aminoacylation: 1.02
biotinyl-Val-oxazolone
  self-aminoacylation: 1.09
biotinyl-Met-oxazolone
  self-aminoacylation: 1.07
biotinyl-Phe-oxazolone
  self-aminoacylation: 3.47
biotinyl-Leu-oxazolone
  self-aminoacylation: 1.19
biotinyl-Trp-oxazolone
  self-aminoacylation: 1.05

## CUACUUCAAACAAGCUGUCUG [Fam1A.1 aminoacylation ribozyme variant]
biotinyl-Ile-oxazolone
  self-aminoacylation: 0.733
biotinyl-Val-oxazolone
  self-aminoacylation: 0.734
biotinyl-Met-oxazolone
  self-aminoacylation: 0.7
biotinyl-Phe-oxazolone
  self-aminoacylation: 0.642
biotinyl-Leu-oxazolone
  self-aminoacylation: 0.795
biotinyl-Trp-oxazolone
  self-aminoacylation: 0.356

## CUGCACCUAGGUCAUCGGGUG [Fam2.2 aminoacylation ribozyme variant]
biotinyl-Ile-oxazolone
  self-aminoacylation: 3.76
biotinyl-Val-oxazolone
  self-aminoacylation: 5.11
biotinyl-Met-oxazolone
  self-aminoacylation: 7.52
biotinyl-Phe-oxazolone
  self-aminoacylation: 60
biotinyl-Leu-oxazolone
  self-aminoacylation: 7.81
biotinyl-Trp-oxazolone
  self-aminoacylation: 6.48

## UAGUUUGCUAAUAGUCGCCAG [Fam3.1 aminoacylation ribozyme variant]
biotinyl-Ile-oxazolone
  self-aminoacylation: 1.47
biotinyl-Val-oxazolone
  self-aminoacylation: 1.2
biotinyl-Met-oxazolone
  self-aminoacylation: 1.69
biotinyl-Phe-oxazolone
  self-aminoacylation: 1.74
biotinyl-Leu-oxazolone
  self-aminoacylation: 1.7
biotinyl-Trp-oxazolone
  self-aminoacylation: 1.16

## AAGUUUGCAAAUACUCGCAAG [Fam3.1 aminoacylation ribozyme variant]
biotinyl-Ile-oxazolone
  self-aminoacylation: 0.898
biotinyl-Val-oxazolone
  self-aminoacylation: 0.798
biotinyl-Met-oxazolone
  self-aminoacylation: 0.701
biotinyl-Phe-oxazolone
  self-aminoacylation: 2.14
biotinyl-Leu-oxazolone
  self-aminoacylation: 0.897
biotinyl-Trp-oxazolone
  self-aminoacylation: 0.774

## CUACUUCAAGCAAUCAGUCUG [Fam1A.1 aminoacylation ribozyme variant]
biotinyl-Ile-oxazolone
  self-aminoacylation: 0.772
biotinyl-Val-oxazolone
  self-aminoacylation: 0.786
biotinyl-Met-oxazolone
  self-aminoacylation: 0.615
biotinyl-Phe-oxazolone
  self-aminoacylation: 5.21
biotinyl-Leu-oxazolone
  self-aminoacylation: 0.698
biotinyl-Trp-oxazolone
  self-aminoacylation: 2.25

— the supplement of paper PMC9233669
